This note sets out measurements from patent US20080274480A1.

The assay has as its target BoNT/A receptor on mouse brain synaptosomes (mouse).

pIC50: −log10 of the molar value.

Take “inactive BoNT/A toxin (formaldehyde-inactivated BoNT/A, Metabiologics, Inc.), unlabeled (from UniProt P0DPI1 2-1296)”: the pIC50 (usually the IC50 on a negative log10 scale, so that one unit is a factor of ten) was 7.89; the percent inhibition was 100%; the percent inhibition at 2.0 µg came to 98%.
